Source: patent US20240124576A1

Legend:
[1] = target: murine S-15 Biotin (Acrobiosystems, Cat. No. SG5-M52H7, biotinylated) (murine); assay: flow cytometry of yeast-displayed scFv clone, 30 nM Murine S-15 Biotin, Streptavidin-PE
Irrelevant antigen = assay: flow cytometry of yeast-displayed scFv clone, 30 nM irrelevant antigen, Streptavidin-PE
[2] = target: Monkey S-15-Fc (Acrobiosystems, Cat. No. SG5-C5253) (monkey); assay: flow cytometry of yeast-displayed scFv clone, 10 nM Monkey S-15-Fc, M&H Fc-APC
[3] = target: T1, biotinylated human Siglec-15 protein (Acrobiosystems, Cat. No. SG5-H82E9) (human) (UniProt Q6ZMC9); assay: flow cytometry of yeast-displayed scFv clone, 30 nM Human S-15 Biotin, Streptavidin-PE
T1 sequence (biotinylated, looked up): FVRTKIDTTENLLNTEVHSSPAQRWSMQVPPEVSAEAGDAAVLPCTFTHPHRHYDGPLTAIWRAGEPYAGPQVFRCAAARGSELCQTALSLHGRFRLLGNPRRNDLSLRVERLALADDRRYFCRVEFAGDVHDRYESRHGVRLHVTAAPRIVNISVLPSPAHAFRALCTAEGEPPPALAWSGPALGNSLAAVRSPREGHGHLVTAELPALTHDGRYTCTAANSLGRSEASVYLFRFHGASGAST

B1: Ab0 (clone Y14C4), single-chain antibody displayed on yeast (scFv, part only; not given: linker, domain order, tag, anchor, V domains shown, not shown: another chain or arm of the molecule; large carriers; small tags and cut ends)
VH: EVQLLESGGGLVQPGGSLRLSCAASGFTFSSYAMSWVRQAPGKGLEWVSTISGGGGSTYYADSVKGRFTISRDNSKNTLYLQMNSLRAEDTAVYYCAKAIGSSWYSDAFDLWGQGTMVTVSS
VL: DIQMTQSPSSVSASVGDRVTITCRASQDISSWLAWYQQKPGKAPKLLIYVASSLQSGVPSRFSGSGSGTDFTLTISSLQPEDFATYYCQQSYSIPYTFGQGTKLEIK
Murine S-15 binding signal [1]: 286 MFI | Irrelevant antigen-binding signal (Irrelevant antigen): 12.5 MFI | Monkey S-15 binding signal [2]: 588 MFI | Human S-15 binding signal [3]: 666 MFI
